Data as given in doi:10.1101/2021.02.03.429574 (bioRxiv, 2021).

Columns and labels:
[1] = biological target: PsaA (Pisum sativum photosystem I) (Pisum sativum (pea), UniProt P05310 16-758); assay: cryo-EM structure
[2] = biological target: PsaB (Pisum sativum photosystem I) (Pisum sativum (pea), UniProt P05311 13-734); assay: cryo-EM structure
[3] = biological target: photosystem I of Chlamydomonas reinhardtii, wild type (Chlamydomonas reinhardtii, UniProt P12154 1-751; P09144 1-735; P12356 63-227); assay: flash-induced absorbance transients at 817 nm

Chain of PsaB (Pisum sativum photosystem I) (P05311 13-734): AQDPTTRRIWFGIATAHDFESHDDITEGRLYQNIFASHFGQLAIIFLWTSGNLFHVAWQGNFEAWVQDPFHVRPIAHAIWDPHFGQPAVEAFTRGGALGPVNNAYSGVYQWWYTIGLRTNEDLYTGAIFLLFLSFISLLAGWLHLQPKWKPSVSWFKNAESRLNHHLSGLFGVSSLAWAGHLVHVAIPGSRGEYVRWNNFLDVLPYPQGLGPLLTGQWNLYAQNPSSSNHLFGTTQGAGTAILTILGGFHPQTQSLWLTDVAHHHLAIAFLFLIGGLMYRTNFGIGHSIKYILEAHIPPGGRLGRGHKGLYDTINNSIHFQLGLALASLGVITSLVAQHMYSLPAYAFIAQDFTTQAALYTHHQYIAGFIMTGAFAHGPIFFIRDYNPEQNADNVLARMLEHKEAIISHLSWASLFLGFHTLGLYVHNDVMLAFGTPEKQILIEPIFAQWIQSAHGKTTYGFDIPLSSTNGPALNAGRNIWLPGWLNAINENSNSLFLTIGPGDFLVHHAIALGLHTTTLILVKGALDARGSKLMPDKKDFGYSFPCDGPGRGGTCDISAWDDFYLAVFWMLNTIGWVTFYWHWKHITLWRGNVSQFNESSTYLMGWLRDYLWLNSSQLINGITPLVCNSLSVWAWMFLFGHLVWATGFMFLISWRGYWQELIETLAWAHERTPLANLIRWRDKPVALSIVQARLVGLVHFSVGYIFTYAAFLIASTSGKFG
Chain of PsaA (Pisum sativum photosystem I) (P05310 16-758): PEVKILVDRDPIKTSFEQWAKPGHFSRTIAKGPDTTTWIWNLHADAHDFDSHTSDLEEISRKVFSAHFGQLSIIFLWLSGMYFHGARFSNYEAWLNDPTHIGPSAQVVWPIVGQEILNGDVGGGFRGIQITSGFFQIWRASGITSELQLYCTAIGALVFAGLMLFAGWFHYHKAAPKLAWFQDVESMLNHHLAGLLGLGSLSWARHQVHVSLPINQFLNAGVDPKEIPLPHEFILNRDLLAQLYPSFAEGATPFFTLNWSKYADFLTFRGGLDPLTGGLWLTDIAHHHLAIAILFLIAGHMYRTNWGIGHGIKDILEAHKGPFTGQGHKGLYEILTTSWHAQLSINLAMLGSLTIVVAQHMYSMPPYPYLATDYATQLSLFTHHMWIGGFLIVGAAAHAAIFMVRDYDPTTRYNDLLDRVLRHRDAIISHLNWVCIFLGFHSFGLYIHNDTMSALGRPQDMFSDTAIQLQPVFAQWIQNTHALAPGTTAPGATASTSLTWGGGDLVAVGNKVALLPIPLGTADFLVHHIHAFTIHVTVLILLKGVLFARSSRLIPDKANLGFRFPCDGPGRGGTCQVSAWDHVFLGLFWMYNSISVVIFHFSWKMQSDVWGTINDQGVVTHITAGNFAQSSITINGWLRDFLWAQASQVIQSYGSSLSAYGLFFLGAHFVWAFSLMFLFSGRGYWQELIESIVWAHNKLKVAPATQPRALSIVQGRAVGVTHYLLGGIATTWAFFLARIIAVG

B1: plastocyanin (Pisum sativum), reduced (natural protein, Pisum sativum (pea), UniProt P16002 70-168, looked up)
chain: VEVLLGASDGGLAFVPSSLEVSAGETIVFKNNAGFPHNVVFDEDEIPAGVDASKISMPEEDLLNAPGETYSVKLDAKGTYKFYCSPHQGAGMVGQVTVN
B1: binds [1]; binds [2].

B2: plastocyanin used with Chlamydomonas reinhardtii PSI (natural protein, UniProt P18068 48-145, looked up)
chain: DATVKLGADSGALEFVPKTLTIKSGETVNFVNNAGFPHNIVFDEDAIPSGVNADAISRDDYLNAPGETYSVKLTAAGEYGYYCEPHQGAGMVGKIIVQ
With B2 the Kd [3] was 88 µM.
